# Laboratory results: the RNAGym collection of RNA variant scans (doi:10.1021/acssynbio.7b00057)
# B1: Pistol ribozyme (parent)
# chain: GGGUCGUUGUUCCAUAAUCGCGUGGAUAUGGCACGCAAGUUUCUACCGGGCACCGUAAAUGUCCGACUGGAGCCGUUCGGGCGGCUAUAAACAGACCUCAGGCCCGAAGCGUGGCGGCACCUGCCGCCGGUGGUAAAAAAGAUCGGAAGAGCACACGUCU
# Variants of: B1
# Test: aptazyme ON/OFF ratio, guanine; higher = stronger switching; co-transcriptional cleavage with and without guanine
row,Variant,aptazyme ON/OFF ratio
1,U7C U8C G9C U10G C12U C13A,1.08
2,U7C U8C G9C U10G C12U C13G,1.09
3,U7C U8C G9C U10G U11A C12U C13A,1.07
4,U7C U8C G9C U10G U11A C12U C13U,1.09
5,U7C U8C G9C U10G U11A C12U C13G,1.07
6,U7C U8C G9U U10G U11C C12A,1.17
7,U7C U8C G9U U10G U11C C12U,1.25
8,U7C U8C G9U U10G U11C C12G,1.24
9,U7C U8C G9C U10G C13U,1.17
10,U7C U8C G9C U10G C13G,1.1
11,U7C U8C G9C U10G C13A,1.13
12,U7C U8C G9U U10C C12G,1.22
13,U7C U8C G9U U10C C12U,1.32
14,U7C U8C G9U U10C C12A,1.29
15,U7C U8C G9C U10C U11G C12U,1.15
16,U7C U8C G9C U10C U11G C12A,1.18
17,U7C U8C G9C U10C U11G C12G,1.13
18,U7C U8C G9U U10C U11G C12U,1.22
19,U7C U8C G9U U10C U11G C12A,1.16
20,U7C U8C G9U U10C U11G C12G,1.16
21,U7C U8C G9U U10A U11G C12G C13U,1.07

row,Variant,aptazyme ON/OFF ratio
1,U7C U8C G9U U10A U11G C12G C13G,1.08
2,U7C U8C G9U U10A U11G C12G C13A,1.19
3,U7C U8C G9U U10A C12U C13G,1.14
4,U7C U8C G9U U10A C12U C13A,1.07
5,U7C U8C G9U U10A C12U C13U,1.19
6,U7C U8C G9U U10C C13G,1.08
7,U7C U8C G9U U10C C13A,1.2
8,U7C U8C G9U U10C C13U,3.5
9,U7C U8C G9U U10G C12U C13A,1.1
10,U7C U8C G9U U10G C12U C13U,1.21
11,U7C U8C G9U U10G C12U C13G,1.12
12,U7C U8C G9C U10G U11G C12U C13A,1.08
13,U7C U8C G9C U10G U11G C12U C13G,1.09
14,U7C U8C G9C U10G U11G C12U C13U,1.06
15,U7C U8C G9C U11C C13G,1.04
16,U7C U8C G9C U11C C13A,1.28
17,U7C U8C G9C U11C C13U,1.24
18,U7C U8C G9U U10A C12A C13A,1.2
19,U7C U8C G9U U10A C12A C13G,1.07
20,U7C U8C G9U U10A C12A C13U,1.2
21,U7C U8C G9C U10G U11C C12A C13G,1.17

row,Variant,aptazyme ON/OFF ratio
1,U7C U8C G9C U10G U11C C12A C13A,1.13
2,U7C U8C G9C U10G U11C C12A C13U,1.09
3,U7C U8C G9U U10C U11C C12A C13G,1.18
4,U7C U8C G9U U10C U11C C12A C13U,1.16
5,U7C U8C G9U U10C U11C C12A C13A,1.12
6,U7C U8C G9U U10C U11A C12A C13G,1.17
7,U7C U8C G9U U10C U11A C12A C13A,1.17
8,U7C U8C G9U U10C U11A C12A C13U,1.09
9,U7C U8C G9U U10C U11G C12G C13U,1.08
10,U7C U8C G9U U10C U11G C12G C13G,1.09
11,U7C U8C G9U U10C U11G C12G C13A,1.14
12,U7C U8C G9U U10C C12U C13G,1.1
13,U7C U8C G9U U10C C12U C13U,1.28
14,U7C U8C G9U U10C C12U C13A,1.12
15,U7C U8C G9C U11G C12U C13A,1.06
16,U7C U8C G9C U11G C12U C13U,1.1
17,U7C U8C G9C U11G C12U C13G,1.07
18,U7C U8C G9C U10G U11G C12G C13U,1.05
19,U7C U8C G9C U10G U11G C12G C13A,1.11
20,U7C U8C G9C U10G U11G C12G C13G,1.09
21,U7C U8C G9C U10G,1.61

row,Variant,aptazyme ON/OFF ratio
1,U7C U8C G9U C13A,1.02
2,U7C U8C G9U C13G,1.03
3,U7C U8C G9U C13U,1.23
4,U7C U8C G9U U10G U11A C13G,1.1
5,U7C U8C G9U U10G U11A C13A,1.18
6,U7C U8C G9U U10G U11A C13U,1.17
7,U7C U8C G9C U10C U11G C12U C13U,1.1
8,U7C U8C G9C U10C U11G C12U C13G,1.1
9,U7C U8C G9C U10C U11G C12U C13A,1.09
10,U7C U8C G9U U10C C12A C13G,1.09
11,U7C U8C G9U U10C C12A C13A,1.17
12,U7C U8C G9U U10C C12A C13U,1.07
13,U7C U8C G9U U10A U11G C12U C13U,1.14
14,U7C U8C G9U U10A U11G C12U C13A,1.06
15,U7C U8C G9U U10A U11G C12U C13G,1.13
16,U7C U8C G9C U11A C12U C13A,1.06
17,U7C U8C G9C U11A C12U C13G,1.16
18,U7C U8C G9C U11A C12U C13U,1.11
19,U7C U8C G9U U10G U11C C12G C13G,1.17
20,U7C U8C G9U U10G U11C C12G C13U,1.1
21,U7C U8C G9U U10G U11C C12G C13A,1.08
